The record followed here is US20140050743A1, “BINDING PROTEINS TO INHIBITORS OF COAGULATION FACTORS” (BAYER INTELLECTUAL PROPERTY GMBH, priority 2011, published 2014).

Assay [1] in a line: ELISA-based activity assay of antibody variants with a competition step (300 nM rivaroxaban). Details: key: ++: Variants with an average ratio above wt plus 2×SD (standard deviation of the ratio) were considered as improved; −: variants with a ratio below wt minus 2×SD were considered as reduced in their binding affinity; +/−: All variants with a performance in between both thresholds; −−: Variants with average fluorescence counts below the negative control (non-expressing cells) plus 3×SD were considered as non-binding. Format: binding. The settings on record: Table 11: single and double amino acid substitutions within M18-G08, variant to wt ratio, 1-3 independent experiments. The procedure: To determine the activity of the mutated antibody variants on compound from Example 1K an equilibrium or dissociation limited ELISA assay format was used. Briefly, MTP plates (Nunc Maxisorp black, 460518) were coated with 4 μg/ml streptavidin (Calbiochem, 189730) diluted in coating buffer (Candor Bioscience GmbH, 121500) and incubated over night at 4° C. After washing with PBST, plates were blocked with 100% Smart Block (Candor Bioscience GmbH, 113500) in PBST for 1 h at room temperature and the washing step was repeated. […] After washing 10 μM Amplex Red (Invitrogen, A12222) were added and incubated for 10 to 30 min at room temperature followed by measurement of the fluorescence signal.
Provided in table 11 are several examples of single and/or double amino acid substitutions introduced into the heavy and/or the light chain of M18-G08 (wt). Performance of the variants was analyzed in quadruples in the ELISA with a competition step and the FXa deinhibition assay (FXa DIA). In the ELISA, averages were calculated and overall performance of variants was evaluated by comparing the variant to wt ratio from 1-3 independent experiments. […] Variants with average fluorescence counts below the negative control (non-expressing cells) plus 3×SD were considered as non-binding and marked with “−−”. […] Variants not analyzed are marked with “nd” (not determined). […]
For orientation: ELISA stands for enzyme-linked immunosorbent assay.

For assay [2], the system named is rivaroxaban (FXa activity). Nature of the assay: FXa de-inhibition assay (FXa DIA) of Fab variants. Format: biochemical. Details: key: ++: Variants with an average ratio above wt plus 2×SD were considered as improved; −−: variants with a ratio below wt minus 2×SD were considered as either reduced in their binding affinity or non-binding; +/−: All variants with a performance in between both thresholds. The note with it: Table 11: single and double amino acid substitutions within M18-G08; FXa deinhibition assay; variant/wt ratio, 2-3 independent experiments. As to the method: Then, 7 μl of 28 nM FXa (Haematologic Technologies Inc., HCXA-0060) diluted in assay buffer (20 mM Tris, Merck 1.08382.2500; 100 mM NaCl, Merck 1.06404.5000; 2.5 mM CaCl2*2H2O, Merck 1.02382.1000; 0.1% bovine serum albumin, Sigma A4503; 0.1% PEG 8000, Sigma P2139) were added and enzyme activity was recorded over time by measuring the fluorescence signal at 440 nm using a micro plate reader e.g. Tecan Infinite F500. The fluorescence signal was integrated over time and ratios of variant to wild-type were compared.
Provided in Table 9 are several examples of single and/or double amino acid substitutions introduced into the heavy and/or the light chain of M14-G07 (wt). Performance of the variants was analyzed in quadruples in the ELISA without a competition step and the FXa deinhibition assay (FXa DIA). In the ELISA, averages were calculated and normalized to the respective average expression level. Overall performance of variants was evaluated by comparing the variant to wt ratio from 2-3 independent experiments. […] Variants with average fluorescence counts below the negative control (non-expressing cells) plus 3×SD were considered as non-binding and marked with “−−” with none of the variants fulfilling this criteria. In the FXa deinhibition assay averages were calculated and overall performance of variants was evaluated by comparing the variant to wt ratio from 2-3 independent experiments. […]

B1: HC_N31S (antibody, V domains shown)
VH: EVQLLESGGGLVQPGGSLRLSCAASGFTFSSAWMSWVRQAPGKGLEWVSYISSSGSTIYYADSVKGRFTISRDNSKNTLYLQMNSLRAEDTAVYYCAREGLWAFDYWGQGTLVTVTS
VL: QSVLTQPPSASGTPGQRVTISCTGSSSNIGAGYVVHWYQQLPGTAPKLLIYDNNKRPSGVPDRFSGSKSGTSASLAISGLRSEDEADYYCAAWDDRLNGPVFGGGTKLTVLGQ
For B1, the ELISA entry in assay [1] was “+/−”.

B2: HC_A32Y (antibody, V domains shown)
VH: EVQLLESGGGLVQPGGSLRLSCAASGFTFSNYWMSWVRQAPGKGLEWVSYISSSGSTIYYADSVKGRFTISRDNSKNTLYLQMNSLRAEDTAVYYCAREGLWAFDYWGQGTLVTVTS
VL: QSVLTQPPSASGTPGQRVTISCTGSSSNIGAGYVVHWYQQLPGTAPKLLIYDNNKRPSGVPDRFSGSKSGTSASLAISGLRSEDEADYYCAAWDDRLNGPVFGGGTKLTVLGQ
With B2, the ELISA entry in assay [1] is recorded as “++”. In addition, the FXa-DIA result in assay [2] is reported as “++”.
